Measurements as given in the supplement of paper PMC5998384.

Assays:
HeLa Kyoto [1] = test: solubility in G1/S (NP-40 vs SDS abundance) (log2 ratio); higher = more soluble; settings: cell cycle stage: G1/S
HeLa Kyoto [2] = test: solubility change mitosis vs G1/S (difference of NP-40 vs SDS log2 ratios) (log2 ratio difference); higher = more soluble in mitosis
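Wherever solubility change mitosis vs G1/S (difference of NP-40 vs SDS log2 ratios) is given: synchronized HeLa Kyoto cells (double thymidine block for G1/S, nocodazole release for mitosis), protein amounts in NP-40 versus SDS lysates quantified by mass spectrometry, three biological replicates.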
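Wherever solubility in G1/S (NP-40 vs SDS abundance) is given: HeLa Kyoto cells arrested at G1/S by double thymidine block, proteins quantified by TMT10plex mass spectrometry in mild NP-40 versus SDS extracts, three biological replicates.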

MAST2, sequence (chain, as listed by the source): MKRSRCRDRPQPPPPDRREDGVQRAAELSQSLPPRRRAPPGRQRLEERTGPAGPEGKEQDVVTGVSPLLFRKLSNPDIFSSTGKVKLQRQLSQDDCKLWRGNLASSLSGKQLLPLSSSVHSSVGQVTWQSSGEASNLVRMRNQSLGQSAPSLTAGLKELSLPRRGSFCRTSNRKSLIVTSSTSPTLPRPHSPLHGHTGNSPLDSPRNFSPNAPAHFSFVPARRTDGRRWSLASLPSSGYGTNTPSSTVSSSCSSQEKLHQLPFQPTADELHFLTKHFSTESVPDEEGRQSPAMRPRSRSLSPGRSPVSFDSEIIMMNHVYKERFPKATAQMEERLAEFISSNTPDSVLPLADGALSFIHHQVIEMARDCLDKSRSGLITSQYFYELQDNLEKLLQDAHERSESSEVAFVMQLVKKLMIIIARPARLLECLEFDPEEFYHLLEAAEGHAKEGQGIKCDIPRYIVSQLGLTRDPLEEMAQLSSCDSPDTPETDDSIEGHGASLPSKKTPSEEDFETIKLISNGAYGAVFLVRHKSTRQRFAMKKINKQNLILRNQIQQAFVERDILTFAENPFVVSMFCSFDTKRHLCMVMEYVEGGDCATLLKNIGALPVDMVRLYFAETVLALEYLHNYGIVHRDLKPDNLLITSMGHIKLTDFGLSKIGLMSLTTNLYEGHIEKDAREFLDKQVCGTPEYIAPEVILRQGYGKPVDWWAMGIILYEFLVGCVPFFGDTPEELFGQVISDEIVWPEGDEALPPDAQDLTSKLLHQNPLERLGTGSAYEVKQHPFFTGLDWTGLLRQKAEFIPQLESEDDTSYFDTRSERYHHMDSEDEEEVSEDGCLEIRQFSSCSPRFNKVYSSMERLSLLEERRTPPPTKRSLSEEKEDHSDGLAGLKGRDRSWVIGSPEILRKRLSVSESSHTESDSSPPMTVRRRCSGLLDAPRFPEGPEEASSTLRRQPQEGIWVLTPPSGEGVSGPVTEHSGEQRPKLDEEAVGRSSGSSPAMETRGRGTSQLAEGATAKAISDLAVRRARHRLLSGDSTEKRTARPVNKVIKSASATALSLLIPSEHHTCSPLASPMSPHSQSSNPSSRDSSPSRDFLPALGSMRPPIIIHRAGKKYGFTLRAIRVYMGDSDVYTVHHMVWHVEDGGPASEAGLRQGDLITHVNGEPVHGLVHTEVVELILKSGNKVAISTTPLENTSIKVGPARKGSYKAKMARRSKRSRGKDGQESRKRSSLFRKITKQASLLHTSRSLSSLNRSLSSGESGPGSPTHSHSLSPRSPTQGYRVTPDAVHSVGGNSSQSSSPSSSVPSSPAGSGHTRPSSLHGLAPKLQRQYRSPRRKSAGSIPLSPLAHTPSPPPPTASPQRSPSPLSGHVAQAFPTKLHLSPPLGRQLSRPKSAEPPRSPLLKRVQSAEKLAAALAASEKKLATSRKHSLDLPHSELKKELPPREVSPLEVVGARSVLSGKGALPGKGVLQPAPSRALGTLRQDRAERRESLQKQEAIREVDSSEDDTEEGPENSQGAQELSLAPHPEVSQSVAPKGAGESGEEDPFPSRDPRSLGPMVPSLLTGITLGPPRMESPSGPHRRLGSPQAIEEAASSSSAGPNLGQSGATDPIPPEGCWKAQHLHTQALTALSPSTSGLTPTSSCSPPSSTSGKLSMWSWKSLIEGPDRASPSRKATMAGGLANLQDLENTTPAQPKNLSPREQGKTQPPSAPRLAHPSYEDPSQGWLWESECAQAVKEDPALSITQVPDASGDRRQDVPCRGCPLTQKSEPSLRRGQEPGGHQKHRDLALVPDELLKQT

Substance	solubility in G1/S (log2) (HeLa Kyoto [1])	solubility change mitosis (log2) (HeLa Kyoto [2])
MSTEADEGITFSVPPFAPSGFCTIPEGGICRRGGAAAVGEGEEHQLPPPPPGSFWNVESAAAPGIGCPAATSSSSATRGRGSSVGGGSRRTTVAYVINEASQGQLVVAESEALQSLREACETVGATLETLHFGKLDFGETTVLDRFYNADIAVVEMSDAFRQPSLFYHLGVRESFSMANNIILYCDTNSDSLQSLKEIICQKNTMCTGNYTFVPYMITPHNKVYCCDSSFMKGLTELMQPNFELLLGPICLPLVDRFIQLLKVAQASSSQYFRESILNDIRKARNLYTGKELAAELARIRQRVDNIEVLTADIVINLLLSYRDIQDYDSIVKLVETLEKLPTFDLASHHHVKFHYAFALNRRNLPGDRAKALDIMIPMVQSEGQVASDMYCLVGRIYKDMFLDSNFTDTESRDHGASWFKKAFESEPTLQSGINYAVLLLAAGHQFESSFELRKVGVKLSSLLGKKGNLEKLQSYWEVGFFLGASVLANDHMRVIQASEKLFKLKTPAWYLKSIVETILIYKHFVKLTTEQPVAKQELVDFWMDFLVEATKTDVTVVRFPVLILEPTKIYQPSYLSINNEVEEKTISIWHVLPDDKKGIHEWNFSASSVRGVSISKFEERCCFLYVLHNSDDFQIYFCTELHCKKFFEMVNTITEEKGRSTEEGDCESDLLEYDYEYDENGDRVVLGKGTYGIVYAGRDLSNQVRIAIKEIPERDSRYSQPLHEEIALHKHLKHKNIVQYLGSFSENGFIKIFMEQVPGGSLSALLRSKWGPLKDNEQTIGFYTKQILEGLKYLHDNQIVHRDIKGDNVLINTYSGVLKISDFGTSKRLAGINPCTETFTGTLQYMAPEIIDKGPRGYGKAADIWSLGCTIIEMATGKPPFYELGEPQAAMFKVGMFKVHPEIPESMSAEAKAFILKCFEPDPDKRACANDLLVDEFLKVSSKKKKTQPKLSALSAGSNEYLRSISLPVPVLVEDTSSSSEYGSVSPDTELKVDPFSFKTRAKSCGERDVKGIRTLFLGIPDENFEDHSAPPSPEEKDSGFFMLRKDSERRATLHRILTEDQDKIVRNLMESLAQGAEEPKLKWEHITTLIASLREFVRSTDRKIIATTLSKLKLELDFDSHGISQVQVVLFGFQDAVNKVLRNHNIKPHWMFALDSIIRKAVQTAITILVPELRPHFSLASESDTADQEDLDVEDDHEEQPSNQTVRRPQAVIEDAVATSGVSTLSSTVSHDSQSAHRSLNVQLGRMKIETNRLLEELVRKEKELQALLHRAIEEKDQEIKHLKLKSQPIEIPELPVFHLNSSGTNTEDSELTDWLRVNGADEDTISRFLAEDYTLLDVLYYVTRDDLKCLRLRGGMLCTLWKAIIDFRNKQT [MAP3K5]	-1.04	0.654
MDPDPQAGVQVGMRVVRGVDWKWGQQDGGEGGVGTVVELGRHGSPSTPDRTVVVQWDQGTRTNYRAGYQGAHDLLLYDNAQIGVRHPNIICDCCKKHGLRGMRWKCRVCLDYDLCTQCYMHNKHELAHAFDRYETAHSRPVTLSPRQGLPRIPLRGIFQGAKVVRGPDWEWGSQDGGEGKPGRVVDIRGWDVETGRSVASVTWADGTTNVYRVGHKGKVDLKCVGEAAGGFYYKDHLPRLGKPAELQRRVSADSQPFQHGDKVKCLLDTDVLREMQEGHGGWNPRMAEFIGQTGTVHRITDRGDVRVQFNHETRWTFHPGALTKHHSFWVGDVVRVIGDLDTVKRLQAGHGEWTDDMAPALGRVGKVVKVFGDGNLRVAVAGQRWTFSPSCLVAYRPEEDANLDVAERARENKSSLSVALDKLRAQKSDPEHPGRLVVEVALGNAARALDLLRRRPEQVDTKNQGRTALQVAAYLGQVELIRLLLQARAGVDLPDDEGNTALHYAALGNQPEATRVLLSAGCRADAINSTQSTALHVAVQRGFLEVVRALCERGCDVNLPDAHSDTPLHSAISAGTGASGIVEVLTEVPNIDVTATNSQGFTLLHHASLKGHALAVRKILARARQLVDAKKEDGFTALHLAALNNHREVAQILIREGRCDVNVRNRKLQSPLHLAVQQAHVGLVPLLVDAGCSVNAEDEEGDTALHVALQRHQLLPLVADGAGGDPGPLQLLSRLQASGLPGSAELTVGAAVACFLALEGADVSYTNHRGRSPLDLAAEGRVLKALQGCAQRFRERQAGGGAAPGPRQTLGTPNTVTNLHVGAAPGPEAAECLVCSELALLVLFSPCQHRTVCEECARRMKKCIRCQVVVSKKLRPDGSEVASAAPAPGPPRQLVEELQSRYRQMEERITCPICIDSHIRLVFQCGHGACAPCGSALSACPICRQPIRDRIQIFV [MIB2]	-0.12	-0.0211
MPKRSCPFADVAPLQLKVRVSQRELSRGVCAERYSQEVFEKTKRLLFLGAQAYLDHVWDEGCAVVHLPESPKPGPTGAPRAARGQMLIGPDGRLIRSLGQASEADPSGVASIACSSCVRAVDGKAVCGQCERALCGQCVRTCWGCGSVACTLCGLVDCSDMYEKVLCTSCAMFET [SIVA1]	-0.0737	-0.098
BCORL1	-0.267	0.348
MDEPPFSEAALEQALGEPCDLDAALLTDIEDMLQLINNQDSDFPGLFDPPYAGSGAGGTDPASPDTSSPGSLSPPPATLSSSLEAFLSGPQAAPSPLSPPQPAPTPLKMYPSMPAFSPGPGIKEESVPLSILQTPTPQPLPGALLPQSFPAPAPPQFSSTPVLGYPSPPGGFSTGSPPGNTQQPLPGLPLASPPGVPPVSLHTQVQSVVPQQLLTVTAAPTAAPVTTTVTSQIQQVPVLLQPHFIKADSLLLTAMKTDGATVKAAGLSPLVSGTTVQTGPLPTLVSGGTILATVPLVVDAEKLPINRLAAGSKAPASAQSRGEKRTAHNAIEKRYRSSINDKIIELKDLVVGTEAKLNKSAVLRKAIDYIRFLQHSNQKLKQENLSLRTAVHKSKSLKDLVSACGSGGNTDVLMEGVKTEVEDTLTPPPSDAGSPFQSSPLSLGSRGSGSGGSGSDSEPDSPVFEDSKAKPEQRPSLHSRGMLDRSRLALCTLVFLCLSCNPLASLLGARGLPSPSDTTSVYHSPGRNVLGTESRDGPGWAQWLLPPVVWLLNGLLVLVSLVLLFVYGEPVTRPHSGPAVYFWRHRKQADLDLARGDFAQAAQQLWLALRALGRPLPTSHLDLACSLLWNLIRHLLQRLWVGRWLAGRAGGLQQDCALRVDASASARDAALVYHKLHQLHTMGKHTGGHLTATNLALSALNLAECAGDAVSVATLAEIYVAAALRVKTSLPRALHFLTRFFLSSARQACLAQSGSVPPAMQWLCHPVGHRFFVDGDWSVLSTPWESLYSLAGNPVDPLAQVTQLFREHLLERALNCVTQPNPSPGSADGDKEFSDALGYLQLLNSCSDAAGAPAYSFSISSSMATTTGVDPVAKWWASLTAVVIHWLRRDEEAAERLCPLVEHLPRVLQESERPLPRAALHSFKAARALLGCAKAESGPASLTICEKASGYLQDSLATTPASSSIDKAVQLFLCDLLLVVRTSLWRQQQPPAPAPAAQGTSSRPQASALELRGFQRDLSSLRRLAQSFRPAMRRVFLHEATARLMAGASPTRTHQLLDRSLRRRAGPGGKGGAVAELEPRPTRREHAEALLLASCYLPPGFLSAPGQRVGMLAEAARTLEKLGDRRLLHDCQQMLMRLGGGTTVTSS [SREBF1]	-0.139	-0.263
MAST2	0.087	-0.172
MSGGLAPSKSTVYVSNLPFSLTNNDLYRIFSKYGKVVKVTIMKDKDTRKSKGVAFILFLDKDSAQNCTRAINNKQLFGRVIKASIAIDNGRAAEFIRRRNYFDKSKCYECGESGHLSYACPKNMLGEREPPKKKEKKKKKKAPEPEEEIEEVEESEDEGEDPALDSLSQAIAFQQAKIEEEQKKWKPSSGVPSTSDDSRRPRIKKSTYFSDEEELSD [ZCRB1]	0.0915	0.122
MASKKLGADFHGTFSYLDDVPFKTGDKFKTPAKVGLPIGFSLPDCLQVVREVQYDFSLEKKTIEWAEEIKKIEEAEREAECKIAEAEAKVNSKSGPEGDSKMSFSKTHSTATMPPPINPILASLQHNSILTPTRVSSSATKQKVLSPPHIKADFNLADFECEEDPFDNLELKTIDEKEELRNILVGTTGPIMAQLLDNNLPRGGSGSVLQDEEVLASLERATLDFKPLHKPNGFITLPQLGNCEKMSLSSKVSLPPIPAVSNIKSLSFPKLDSDDSNQKTAKLASTFHSTSCLRNGTFQNSLKPSTQSSASELNGHHTLGLSALNLDSGTEMPALTSSQMPSLSVLSVCTEESSPPNTGPTVTPPNFSVSQVPNMPSCPQAYSELQMLSPSERQCVETVVNMGYSYECVLRAMKKKGENIEQILDYLFAHGQLCEKGFDPLLVEEALEMHQCSEEKMMEFLQLMSKFKEMGFELKDIKEVLLLHNNDQDNALEDLMARAGAS [UBAP1]	0.435	0.147
MGATGDAEQPRGPSGAERGGLELGDAGAAGQLVLTNPWNIMIKHRQVQRRGRRSQMTTSFTDPAISMDLLRAVLQPSINEEIQTVFNKYMKFFQKAALNVRDNVGEEVDAEQLIQEACRSCLEQAKLLFSDGEKVIPRLTHELPGIKRGRQAEEECAHRGSPLPKKRKGRPPGHILSSDRAAAGMVWKPKSCEPIRREGPKWDPARLNESTTFVLGSRANKALGMGGTRGRIYIKHPHLFKYAADPQDKHWLAEQHHMRATGGKMAYLLIEEDIRDLAASDDYRGCLDLKLEELKSFVLPSWMVEKMRKYMETLRTENEHRAVEAPPQT [DNTTIP1]	0.512	-0.0131
MPAIAVLAAAAAAWCFLQVESRHLDALAGGAGPNHGNFLDNDQWLSTVSQYDRDKYWNRFRDDDYFRNWNPNKPFDQALDPSKDPCLKVKCSPHKVCVTQDYQTALCVSRKHLLPRQKKGNVAQKHWVGPSNLVKCKPCPVAQSAMVCGSDGHSYTSKCKLEFHACSTGKSLATLCDGPCPCLPEPEPPKHKAERSACTDKELRNLASRLKDWFGALHEDANRVIKPTSSNTAQGRFDTSILPICKDSLGWMFNKLDMNYDLLLDPSEINAIYLDKYEPCIKPLFNSCDSFKDGKLSNNEWCYCFQKPGGLPCQNEMNRIQKLSKGKSLLGAFIPRCNEEGYYKATQCHGSTGQCWCVDKYGNELAGSRKQGAVSCEEEQETSGDFGSGGSVVLLDDLEYERELGPKDKEGKLRVHTRAVTEDDEDEDDDKEDEVGYIW [SPOCK1]	-0.59	0.345
MALLRKINQVLLFLLIVTLCVILYKKVHKGTVPKNDADDESETPEELEEEIPVVICAAAGRMGATMAAINSIYSNTDANILFYVVGLRNTLTRIRKWIEHSKLREINFKIVEFNPMVLKGKIRPDSSRPELLQPLNFVRFYLPLLIHQHEKVIYLDDDVIVQGDIQELYDTTLALGHAAAFSDDCDLPSAQDINRLVGLQNTYMGYLDYRKKAIKDLGISPSTCSFNPGVIVANMTEWKHQRITKQLEKWMQKNVEENLYSSSLGGGVATSPMLIVFHGKYSTINPLWHIRHLGWNPDARYSEHFLQEAKLLHWNGRHKPWDFPSVHNDLWESWFVPDPAGIFKLNHHS [GLT8D2]	0.233	-0.357
MKSSGLFPFLVLLALGTLAPWAVEGSGKSFKAGVCPPKKSAQCLRYKKPECQSDWQCPGKKRCCPDTCGIKCLDPVDTPNPTRRKPGKCPVTYGQCLMLNPPNFCEMDGQCKRDLKCCMGMCGKSCVSPVKA [SLPI]	-0.403	0.714
